One experiment concerns p38 MAPK. The experiment can be described thus: p38 MAPK assay of inflammatory activity in RAW macrophage cells. The experiment is classed as cell-based. As for the experimental part:
Plasmids containing Tammar wallaby LAMs were directionally cloned into the expression vector pCMV Sport 6.0, and then transfected into the human kidney cell line HK293. A total of 1 μg of LAM-containing plasmid DNA and 10 ng of pEGFP-C1 plasmid was introduced into 70% confluent HK293 cells in 2 cm^2 wells containing 500 ul of opti-MEM-1 media. Transfection success was assessed by observing green fluorescence of cells by fluorescent microscopy. After 48 hours conditioned media containing the secreted polypeptide was collected and frozen at −20° C. The media containing the secreted polypeptides was then used directly in a variety of bioactivity assays. For the assays described below, samples of secreted polypeptides were aliquoted into individual wells of 96 or 384 well plates and stored, prior to assaying, either frozen or lyophilized.
A negative control created by transfection with an insertless vector was used in all assays. For the assays described in Examples 4A, 4B, 4C and 4D results for samples were in the form of relative fluorescence units (RFU) as described herein. […] In some cases, RFU less than two standard deviations from the mean were considered significant if the LAM sample in question produced a positive result in another assay. […]
Activation of p38 MAPK was assessed in RAW macrophage cells. […]

In another experiment the test system is trefoil 1. The experiment can be described thus: Induction of trefoil proteins in AGS cells (peroxidase immunodetection). It counts as cell-based, human. As to the method: FIGS. 11A and B: Peroxidase assay for trefoil activity. Supematants of HEK293 cells expressing tammar mammary clones were applied to the human gastric epithelial cell line, AGS, for 48 hours. The resultant AGS cell conditioned media containing stimulated AGS cell secreted proteins, and the AGS cells, were lysed. Samples of the AGS cell secreted proteins and cell lysates, and a recombinant positive control were transferred to a solid support and probed using a rabbit anti-trefoil 1 antibody and a secondary goat anti-rabbit antibody conjugated to horse radish peroxidase was used to detect the trefoil 1. A: Detection of secreted trefoil 1 in supematants from stimulated AGS cells. B: Detection of expression of trefoil 1 in stimulated AGS cell lysate samples.
In addition, supernatants of HEK293 cells expressing tammar mammary clones were applied to the human gastric epithelial cell line, AGS, for 48 hours. The resultant AGS cell conditioned media containing stimulated AGS cell secreted proteins (i.e. supernatant) were collected and the AGS cells were lysed. […]

Another experiment relates to chicks. Nature of the experiment: Chick growth assay (in ovo injection, weight at hatching). The experiment is classed as in vivo. As for the experimental part: FIG. 5. Chick growth assay by measuring weight. 10 LAMs (being bovine homologues having homology to specific Tammar ESTs), 3 known bovine cathelicidins, and four bovine cathelicidin variants were tested. Conditioned media containing a LAM polypeptides or bovine cathelicidins or variants thereof was diluted in a total of 1 ml of normal saline. Eggs on day 16 of incubation were injected with 1 ml of the media containing the into the broad end of the egg. Chicks were weighed on day of hatching. The overall condition of the chick was assessed including the possible presence of stumpy legs and/or loss of down feathers.
Conditioned media containing LAM polypeptides or bovine cathelicidins or variants thereof were diluted in a total of 1 ml of normal saline. Eggs on day 16 of incubation were injected in ovo with 1 ml of LAM polypeptides or bovine cathelicidins or variants thereof into the broad end of the egg. Chicks were weighed on day of hatching. Controls included saline only, or saline and 10 mg/ml of a peptide as a random peptide control.
As set out in Table 23, the left column indicates the polypeptide used in the assay while the right column contains chick weight in grams as a measurement of chick growth. Bolded numbers represent a chick(s) larger than the controls and more than 2 standard deviations from the mean. In addition, bolded numbers represent chicks that have been killed. The mean represents the weight of all the chicks tested within this experiment.

Experiment [1] concerns mouse embryonic stem (ES) cells. Nature of the experiment: Cellular differentiation assay, mouse ES cells with Oct4-βgal transgene. The experiment is classed as cell-based. Conditions: tammar wallaby polypeptides, LIF 1000 U/ml, 1:5 dilution, 48 hours (FIG. 7). As for the experimental part: FIG. 7. Cellular differentiation assay. To determine the ability of LAMs to influence cell differentiation, mouse embryonic stem (ES) cells were cultured in the presence of leukemia inhibitory factor (LIF) 1000 U/ml and the LAM in question a 1 in 5 dilution of the secreted polypeptides and cultured for 48 hours. […] This figure contains Panel A (Negative control) and Panels B to L (Presence of a LAM for which one LAM polypeptide is represented in one panel).
To determine the ability of LAMs to influence cellular differentiation, mouse embryonic stem (ES) cells were cultured in the presence of a leukemia inhibitory factor (LIF) 1000 U/ml and a 1:5 dilution of the secreted polypeptide LAMs for 48 hours.

Another experiment relates to HC11 cells. Nature of the experiment: Cell growth with cathelicidins in HC11 cells. It counts as cell-based, mouse. The arrangement: cell growth Rep. 1 / cell growth Rep. 2 / cell growth Rep. 3 / cell growth Rep. 4 / cell growth Mean: unit not given here. Conditions: 72 hours. As to the method: FIG. 2. Cellular growth assay with HC11 cells. Mouse mammary epithelial cells, HC11 cells, were grown in media conditioned with: mock transfection (control), LAM32, LAM32a or LAM32b for 72 hours. Samples were performed in triplicate and the cells from each triplicate counted in triplicate. […] LAM 32 is represented as set forth in SEQ ID NO: 188, and two splice variants thereof, designated LAM32a and 32b as set forth in SEQ ID NO: 215 and 207 respectively.
As shown in FIG. 2 equal numbers of mouse mammary HC11 cells were grown in the presence of either a negative control or tammar wallaby cathelicidin-associated polypeptide, namely LAM 32 (SEQ ID NO: 188), LAM 32a (SEQ ID NO: 215) or LAM 32b (SEQ ID NO: 207) in order to determine the effect of these LAMs on cellular growth.
HC11 cells were initially plated at 50 percent confluency and cultured for 72 hours in a 1:10 dilution of serum and antibiotic free Optimem and media conditioned with cathelicidin associated polypeptides. The medium was removed and then washed gently for 2 minutes with Mg^2+- and Ca^2+-free phosphate buffered saline (PBS), 0.05% Trypsin and 1:5000 Versene to disrupt cell aggregates. Cells were collected by scraping and washed twice by resuspension in complete medium followed by centrifugation. The cells were again resuspended and counted in triplicate using a Luber haemocytometer.
(§1) The cells were counted in triplicate using a Luber haemocytometer. The negative control was media alone (i.e. conditioned media […] insertless vector). The samples were deemed statistically significant using a t-test comparing the control with the sample if the values of cell growth were 2 standard deviations higher than the mean of the negative control.

A further experiment has as its system ERK1/2. The experiment can be described thus: ERK1/2 activation in Swiss 3T3 cells by bovine polypeptides. It counts as cell-based. Conditions: cell supernatants containing bovine polypeptide, listed as CAMP. As for the experimental part: Swiss 3T3 cells were treated with cell supematants containing bovine TCN 1 polypeptide. […] An increase in relative fluorescence units over the control indicates ERK activation.
Aliquots of the CRC-IDP samples were used to activate HSC-2 cells in a 96 well plate. Confluent and serum-starved cells were presented with the samples at a final dilution of 1:2. Cells were also stimulated with an internal control for activation of cells (Stim=10% serum) or left unstimulated (unstim). After 10 minutes with the CRC-IDP samples or control stimulus, cells were lysed and assayed for ERK activation using TGR's proprietary assay technology (SureFire). FIG. 12 presents the results as the mean+/−SEm of 3 separate samples. The data is from a single experiment.

Experiment [2] deals with bovine mammary epithelial cells. The experiment can be described thus: Cellular morphology assay, bovine mammary epithelial cells. The experiment is classed as cell-based. Conditions: 1:5 dilution of secreted polypeptide, 48 hours (FIG. 6). As to the method:
FIG. 6. Cellular morphology assay. To determine the ability of LAMs to influence cellular morphology, bovine mammary epithelial cells were plated onto a extracellular matrix and the cells were subsequently allowed to migrate to form mammospheres in the presence or absence of each LAM. The figure contains Panel A (Negative control) and Panels B to G (Presence of a LAM for which one LAM polypeptide is represented in one panel).
Candidate LAM polypeptides that are able to regulate the function and differentiation of the mammary gland were screened by culturing bovine mammary epithelium in the presence of a 1:5 dilution of the secreted polypeptide LAMs for 48 hours as described for the TGR assays in Example 4. Cells were examined microscopically for gross morphological changes and for their ability to induce cell differentiation.

A further experiment relates to mouse ES cells. Nature of the experiment: Cell growth with cathelicidins in mouse ES cells. The experiment is classed as cell-based. Details: cell growth Rep. 1 / cell growth Rep. 2 / cell growth Rep. 3 / cell growth Mean: unit not given here. Conditions: 24 hours. As for the experimental part: Mouse ES cells were plated at 50 percent confluency and cultured for 24 hours in a 1:10 dilution of serum and antibiotic free Optimem and media conditioned with cathelicidin associated polypeptides. The medium was removed and then washed gently for 2 minutes with Mg^2+- and Ca^2+-free phosphate buffered saline 0.05% Trypsin and 1:5000 Versene to disrupt cell aggregates. Cells were collected by scraping and washed twice by resuspension in complete medium followed by centrifugation. The cells were again resuspended and counted in triplicate using a Luber haemocytometer.
as §1

“Also recorded” adds a separate entry of the source.

B1: LAM 19: EBP: Emopamil binding protein (sterol isomerase); tammar polypeptide SEQ ID NO 49, bovine SEQ ID NO 109 (protein)
chain: MTTNTSPMHPYWPRHLRLDNFVPNDYPTWHILAGLFSVSGVLVVATWLLSGRAAVVPLGTWRRLSLCWFAVCGFIHLVIEGWFSLYHADLLGDQAILSQLWKEYAKGDSRYILNDNFMICMETVTAYLWGPLSLWVVIAFLRHQPLRFVLQLVVSMGQVYGDVLYFLTEYRDGFQHGELGHPLYFWFYFVFLNSLWLVVPGLLILDSIKQLAHAQSILDAKAPKAKSKQXLKSDELGLNTGYEELSTYQKIPILAPTGRKDKLN
modifications: X: residue not identified in the source; ends and bridges not checked
Take B1: the “RFU (p38 activation, pro-inflammatory activity)” value in the experiment with p38 MAPK (30 minutes, Mean RFU 12253, SD RFU 7395, negative control 11004 RFU) is reported as 66112 RFU. The “pro-inflammatory activity (RFU significantly above the mean)” value with p38 MAPK (text summary of Tables 12 and 13) is on record as “pro-inflammatory activity”. Further, in the experiment on trefoil 1 (48 hours, trefoil 1 in supernatant (secretion) and cell lysate (expression)), the “Trefoil-inducing activity: Function” value is “enhanced expression and secretion”. The “trefoil 1 expression and/or secretion” value in the experiment with trefoil 1 (Table 16) was “enhance trefoil 1 expression in AGS cells as well as enhance the secretion of trefoil 1”. The “chick size versus controls” value in the experiment on chicks (body weight relative to mean/median of all chicks tested) was “falls just outside 2 standard deviations from the median of chick weights”. The Chick weight in the experiment with chicks (bovine polypeptides in conditioned media, 1 ml in ovo on day 16 of incubation, weighed on day of hatching, Saline 51.0) came out at 57.1 grams. Besides, in experiment [1], the cellular differentiation entry was “induced cellular differentiation”.

B2: LAM 32: Cathelicidin antimicrobial peptide; tammar wallaby polypeptide SEQ ID NO 188, bovine SEQ ID NO 220 (protein)
chain: QALSYREAVLRAVDQLNEQSSEPNIYRLLELDQPPQDDEDPDSPKRVSFRVKETVCSRTTQQPPEQCDFKENGLLKRCEGTVTLDQVRGNFDITCNNHQSIRITKQPWAPPQAARLCRIVVIRVCR
As for B2, the “cell growth Rep. 1” value with HC11 cells (1:10 dilution conditioned media, -ve control 0.727) came out at 0.985; in the experiment on mouse ES cells (1:10 dilution conditioned media, -ve control 0.34), 0.721. Moreover, the “cell growth Rep. 2” value with HC11 cells (-ve control 0.76) is 0.927; in the experiment on mouse ES cells (-ve control 0.474) it was 0.548. The “cell growth Rep. 3” value is on record as 0.968 in the experiment with HC11 cells (-ve control 0.786) and 0.784 in the experiment with mouse ES cells (-ve control 0.352). Besides, the “cell growth Rep. 4” value in the experiment with HC11 cells (-ve control 0.808) was 1.026. Further, the “cell growth Mean” value was 0.9765 with HC11 cells (-ve control mean 0.77025) and 0.6843 in the experiment on mouse ES cells (-ve control mean 0.388666667). The “cell growth versus control (significance)” value with HC11 cells (P<0.05 t-test) was “significantly more cells”. Moreover, the ERK1/2 activation entry in the experiment on ERK1/2 is reported as “activates ERK1/2; also recorded: ERK1/2 activation”. Besides, the “influence on cellular morphology” value in experiment [2] was “induced a significant change in quaternary structure and/or cellular morphology”.

The values are drawn from patent US20110201105A1, “LACTATION-ASSOCIATED POLYPEPTIDES” (Dairy Australia Limited, priority 2007, published 2011).
